Results taken from EP4435012A1 (Juventus Cell Therapy Ltd., dated 2024).

B1: BY-04G CAR (on BCMA CAR-T cell BY-04G) (other)
chain: EIVMTQSPSTLSASVGDRVIINCQASQSVFSNNYLAWYQQKPGKAPKLLIYRASNLASGVPSRFSGSGSGAEFTLTISSLQPDDFATYYCQPTYLSGDWYVAFGQGTKLTVLGGGGSGGGGSGGGGSEVQLVESGGGLVQPGGSLRLSCTASGFSLNYYGMGWVRQAPGKGLEWIGIIAGDRDTYYATWAKGRFTISRDNSKNTVYLQMNSLRAEDTAVYFCARGSYSSTWDGAFDLWGPGTLVTVSSTTTPAPRPPTPAPTIASQPLSLRPEACRPAAGGAVHTRGLDFACDIYIWAPLAGTCGVLLLSLVITLYCKRGRKKLLYIFKQPFMRPVQTTQEEDGCSCRFPEEEEGGCELRVKFSRSADAPAYQQGQNQLYNELNLGRREEYDVLDKRRGRDPEMGGKPRRKNPQEGLYNELQKDKMAEAYSEIGMKGERRRGKGHDGLYQGLSTATKDTYDALHMQALPPR
B2: BY-01G CAR (on BCMA CAR-T cell BY-01G) (other)
chain: EIVMTQSPSTLSASVGDRVIITCQASENIYRNLAWYQQKPGKAPKLLIYAASLLASGVPSRFSGSGSGAEFTLTISSLQPDDFATYYCQNAFYSSSADNPFGQGTKLTVLGGGGSGGGGSGGGGSEVQLVESGGGLVQPGGSLRLSCTASGFSLSSYAMSWVRQAPGKGLEWIGMISSSGSTHYASWAKGRFTISRDTSKNTVYLQMNSLRAEDTAVYYCARDFYVYSSGTYLEYGMDLWGQGTLVTVSSTTTPAPRPPTPAPTIASQPLSLRPEACRPAAGGAVHTRGLDFACDIYIWAPLAGTCGVLLLSLVITLYCKRGRKKLLYIFKQPFMRPVQTTQEEDGCSCRFPEEEEGGCELRVKFSRSADAPAYQQGQNQLYNELNLGRREEYDVLDKRRGRDPEMGGKPRRKNPQEGLYNELQKDKMAEAYSEIGMKGERRRGKGHDGLYQGLSTATKDTYDALHMQALPPR

Biological target: T1, BCMA on MM.1S cells (human multiple myeloma cells that endogenously express BCMA) (human, UniProt Q02223 1-184)
T1 sequence (looked up): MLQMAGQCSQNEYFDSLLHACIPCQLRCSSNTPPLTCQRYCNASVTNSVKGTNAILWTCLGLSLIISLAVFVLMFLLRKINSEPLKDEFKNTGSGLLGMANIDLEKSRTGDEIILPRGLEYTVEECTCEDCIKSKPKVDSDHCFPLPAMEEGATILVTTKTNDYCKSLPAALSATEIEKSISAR
Assay: cell-based or functional assay

Binder | killing of target cell (luciferase activity in target cell, effector/target 1:4, 48 hours)
B1 | 100%
B2 | 100%
